The text below walks through data of US20130195871A1 (AbbVie / Abbott, published 2013).

Assay [1] addresses T1, Recombinant Human MSP Receptor ECD-His tag (human, UniProt Q04912 25-957).
T1 construct: extracellular domain; bought reagent; also called RON
Briefly: SPR (Biacore). (In general: SPR reads the build-up and loss of mass on a sensor chip optically.)
Experimental: (§1) The BIACORE assay (Biacore, Inc, Piscataway, N.J.) determined the affinity of antibodies or DVD-Ig proteins with kinetic measurements of on-rate and off-rate constants. Binding of antibodies or DVD-Ig proteins to a target antigen (for example, a purified recombinant target antigen) was determined by surface plasmon resonance-based measurements with a Biacore® 1000 or 3000 instrument (Biacore AB, Uppsala. Sweden) using running HBS-EP (10 mM HEPES [pH 7.4], 150 mM NaCl, 3 mM EDTA, and 0.005% surfactant P20) at 25° C. […] For example, approximately 5000 RU of goat anti-mouse IgG, (Fcγ), fragment specific polyclonal antibody (Pierce Biotechnology Inc, Rockford, Ill.) diluted in 10 mM sodium acetate (pH 4.5) was directly immobilized across a CM5 research grade biosensor chip using a standard amine coupling kit according to manufacturer's instructions and procedures at 25 μg/ml. Unreacted moieties on the biosensor surface were blocked with ethanolamine. Modified carboxymethyl dextran surface in flowcell 2 and 4 was used as a reaction surface. Unmodified carboxymethyl dextran without goat anti-mouse IgG in flow cell 1 and 3 was used as the reference surface. For kinetic analysis, rate equations derived from the 1:1 Langmuir binding model were fitted simultaneously to association and dissociation phases of all eight injections (using global fit analysis) with the use of Biaevaluation 4.0.1 software. Purified antibodies or DVD-Ig proteins were diluted in HEPES-buffered saline for capture across goat anti-mouse IgG specific reaction surfaces. Antibodies or DVD-Ig proteins to be captured as a ligand (25 μg/ml) were injected over reaction matrices at a flow rate of 5 μl/minute. The association and dissociation rate constants, kₒₙ (M⁻¹s⁻¹) and koff (s⁻¹) were determined under a continuous flow rate of 25 μl/minute. Rate constants were derived by making kinetic binding measurements at different antigen concentrations ranging from 10-200 nM. The equilibrium dissociation constant (M) of the reaction between antibodies or DVD-Ig proteins and the target antigen was then calculated from the kinetic rate constants by the following formula: KD=koff/kₒₙ. Binding was recorded as a function of time and kinetic rate constants were calculated.

The target in assay [2] is T2, EGFR on the cell surface (human, UniProt P00533 25-1210).
T2 construct: whole, on cells
Briefly: flow cytometry on cells, 2 ug/mL, N-terminal VD.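 Note: cells stained for 30 to 60 min on ice.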

Assay [3] has as its target T1, Recombinant Human MSP Receptor ECD-His …. Briefly: SPR (Biacore), C-terminal VD.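 Note: surface plasmon resonance with DVD-Ig proteins captured on an anti-IgG chip and recombinant antigen flowed over in HBS-EP buffer, Langmuir global fit, KD taken as koff/kon.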
Experimental: as §1

B1: DVD2211 (bispecific antibody)
VH: QVQLQESGPGLVKPSEILSLTCTVSGGSISSHYWSWVRQPPGKGLEWIGYIYYSGSTNYNPSLKSRVTISVDTSKNQFSLNLSSVTAADTAVYYCARIPNYYDRSGYYPGYWYFDLWGRGTLVTVSSASTKGPEVQLVQSGGGLVKPGGSLRLSCAASGFTFSSYAMHWVRQAPGKGLEWVAVISYDGSNKYYADSVKGRFTISRDNSKNTLYLQMNSLRAEDTAVYYCARFSGWPNNYYYYGMDVWGQGTTVTVSS
VL: QAVLTQPSSLSAPPGASASLTCTLRSGFNVDSYRISWYQQKPGSPPQYLLRYKSDSDKQQGSGVPSRFSGSKDASANAGILLISGLQSEDEADYYCMIWHSSAWVFGGGTKLTVLRTVAAPSVFIFPPDVVMTQSPLSLPVTPGEPASISCRSSQSLLHSNGFNYVDWYLQKPGQSPHLLIYFGSYRASGVPDRFSGSGSGTDFTLKISRVEAEDVGVYYCMQALQTPPWTFGQGTKVEIR
notes: DVD-Ig, outer AB034 / inner AB005
As for B1, the Kd (in general, the free concentration of one partner at which half of the binding sites on the other are occupied at equilibrium, for simple one-to-one binding) in assay [1] amounted to 15 nM.

B2: DVD2302 (bispecific antibody)
VH: EVQLVESGGGLVQPGGSLRLSCAASGFSLTNYGVHWVRQAPGKGLEWLGVGWSGGNTDYNTPFTSRLTINKDNSKNTVYLQMNSLRAEDTAVYYCARALTWYDYEFAYWGQGTLVTVSSASTKGPEVQLVESGGGLVQPGGSLRLSCAASGFTFTDYTMDWVRQAPGKGLEWVADVNPNSGGSIYNQRFKGRFTLSVDRSKNTLYLQMNSLRAEDTAVYYCARNLGPSFYFDYWGQGTLVTVSS
VL: DILLTQSPGTLSLSPGERATLSCRASQSIYTNIHWYQQKPGQAPRLLIKYASESISGIPDRFSGSGSGTDFTLTISRLEPEDFAVYYCQQNLNWPTTFGQGTKLEIKRTVAAPDIQMTQSPSSLSASVGDRVTITCKASQDVSIGVAWYQQKPGKAPKLLIYSASYRYTGVPSRFSGSGSGTDFTLTISSLQPEDFATYYCQQYYIYPYTFGQGTKVEIK
notes: DVD-Ig, outer AB400 / inner AB080
For the molecule B2, the “GEO MEAN” value in assay [2] stood at 563.

B3: DVD2317 (bispecific antibody)
VH: EVQLVESGGGLVQPGGSLRLSCAASGFTFTDYTMDWVRQAPGKGLEWVADVNPNSGGSIYNQRFKGRFTLSVDRSKNTLYLQMNSLRAEDTAVYYCARNLGPSFYFDYWGQGTLVTVSSASTKGPEVQLVQSGGGLVKPGGSLRLSCAASGFTFSSYAMHWVRQAPGKGLEWVAVISYDGSNKYYADSVKGRFTISRDNSKNTLYLQMNSLRAEDTAVYYCARFSGWPNNYYYYGMDVWGQGTTVTVSS
VL: DIQMTQSPSSLSASVGDRVTITCKASQDVSIGVAWYQQKPGKAPKLLIYSASYRYTGVPSRFSGSGSGTDFTLTISSLQPEDFATYYCQQYYIYPYTFGQGTKVEIKRTVAAPDVVMTQSPLSLPVTPGEPASISCRSSQSLLHSNGFNYVDWYLQKPGQSPHLLIYFGSYRASGVPDRFSGSGSGTDFTLKISRVEAEDVGVYYCMQALQTPPWTFGQGTKVEIR
notes: DVD-Ig, outer AB080 / inner AB005
For B3, the binding result in assay [3] was “no binding (tested: 10-200 nM)”.

B4: DVD2304 (bispecific antibody)
VH: EVQLVESGGGLVQPGGSLRLSCAASGFSLTNYGVHWVRQAPGKGLEWLGVGWSGGNTDYNTPFTSRLTINKDNSKNTVYLQMNSLRAEDTAVYYCARALTWYDYEFAYWGQGTLVTVSSASTKGPEVQLVQSGAEVKKPGSSVKVSCKASGGTFSSYAISWVRQAPGQGLEWMGGIIPIFGTANYAQKFQGRVTITADKSTSTAYMELSSLRSEDTAVYYCARAPLRFLEWSTQDHYYYYYMDVWGKGTTVTVSS
VL: DILLTQSPGTLSLSPGERATLSCRASQSIYTNIHWYQQKPGQAPRLLIKYASESISGIPDRFSGSGSGTDFTLTISRLEPEDFAVYYCQQNLNWPTTFGQGTKLEIKRTVAAPSSELTQDPAVSVALGQTVRITCQGDSLRSYYATWYQQKPGQAPILVIYGENKRPSGIPDRFSGSSSGNTASLTITGAQAEDEADYYCKSRDGSGQHLVFGGGTKLTVL
notes: DVD-Ig, outer AB400 / inner AB075
With B4, in assay [2], the “GEO MEAN” value worked out at 512.

B5: DVD2342 (bispecific antibody)
VH: QVQLQESGPGLVKPSQTLSLTCTVSGYSISSDFAWNWIRQPPGKGLEWMGYISYSGNTRYQPSLKSRITISRDTSKNQFFLKLNSVTAADTATYYCVTAGRGFPYWGQGTLVTVSSASTKGPEVQLVESGGGLVQPGGSLRLSCAASGFTFTDYTMDWVRQAPGKGLEWVADVNPNSGGSIYNQRFKGRFTLSVDRSKNTLYLQMNSLRAEDTAVYYCARNLGPSFYFDYWGQGTLVTVSS
VL: DIQMTQSPSSMSVSVGDRVTITCHSSQDINSNIGWLQQKPGKSFKGLIYHGTNLDDGVPSRFSGSGSGTDYTLTISSLQPEDFATYYCVQYAQFPWTFGGGTKLEIKRTVAAPDIQMTQSPSSLSASVGDRVTITCKASQDVSIGVAWYQQKPGKAPKLLIYSASYRYTGVPSRFSGSGSGTDFTLTISSLQPEDFATYYCQQYYIYPYTFGQGTKVEIK
For B5, in assay [2], the “GEO MEAN” value turned out to be 44.8.

B6: DVD2298 (bispecific antibody)
VH: EVQLVESGGGLVQPGGSLRLSCAASGFSLTNYGVHWVRQAPGKGLEWLGVGWSGGNTDYNTPFTSRLTINKDNSKNTVYLQMNSLRAEDTAVYYCARALTWYDYEFAYWGQGTLVTVSSASTKGPEVQLVQSGGGLVKPGGSLRLSCAASGFTFSSYAMHWVRQAPGKGLEWVAVISYDGSNKYYADSVKGRFTISRDNSKNTLYLQMNSLRAEDTAVYYCARFSGWPNNYYYYGMDVWGQGTTVTVSS
VL: DILLTQSPGTLSLSPGERATLSCRASQSIYTNIHWYQQKPGQAPRLLIKYASESISGIPDRFSGSGSGTDFTLTISRLEPEDFAVYYCQQNLNWPTTFGQGTKLEIKRTVAAPDVVMTQSPLSLPVTPGEPASISCRSSQSLLHSNGFNYVDWYLQKPGQSPHLLIYFGSYRASGVPDRFSGSGSGTDFTLKISRVEAEDVGVYYCMQALQTPPWTFGQGTKVEIR
notes: DVD-Ig, outer AB400 / inner AB005
As for B6, the “GEO MEAN” value in assay [2] was determined as 400.

B7: DVD2306 (bispecific antibody)
VH: EVQLVESGGGLVQPGGSLRLSCAASGFSLTNYGVHWVRQAPGKGLEWLGVGWSGGNTDYNTPFTSRLTINKDNSKNTVYLQMNSLRAEDTAVYYCARALTWYDYEFAYWGQGTLVTVSSASTKGPEVQLVQSGGGLVKPGGSLRLSCAASGFTFSSFAMHWVRQAPGKGLEWISVIDTRGATYYADSVKGRFTISRDNAKNSLYLQMNSLRAEDTAVYYCARLGNFYYGMDVWGQGTTVTVSS
VL: DILLTQSPGTLSLSPGERATLSCRASQSIYTNIHWYQQKPGQAPRLLIKYASESISGIPDRFSGSGSGTDFTLTISRLEPEDFAVYYCQQNLNWPTTFGQGTKLEIKRTVAAPEIVLTQSPGTLSVSPGERATLSCRASQSIGSSLHWYQQKPGQAPRLLIKYASQSLSGIPDRFSGSGSGTDFTLTISRLEPEDFAVYYCHQSSRLPHTFGQGTKVEIK
notes: DVD-Ig, outer AB400 / inner AB077
Regarding B7, in assay [2], the “GEO MEAN” value was 546.

B8: DVD2335 (bispecific antibody)
VH: QVQLQQWGAGLLKPSETLSLTCAVYGGSFSGYYWSWIRQPPGKGLEWIGEINHSGSTNYNPSLKSRVTISVETSKNQFSLKLSSVTAADTAVYYCARDKWTWYFDLWGRGTLVTVSSASTKGPQVQLQESGPGLVKPSEILSLTCTVSGGSISSHYWSWVRQPPGKGLEWIGYIYYSGSTNYNPSLKSRVTISVDTSKNQFSLNLSSVTAADTAVYYCARIPNYYDRSGYYPGYWYFDLWGRGTLVTVSS
VL: DIEMTQSPDSLAVSLGERATINCRSSQSVLYSSSNRNYLAWYQQNPGQPPKLLIYWASTRESGVPDRFSGSGSGTDFTLTISSLQAEDVAVYYCQQYYSTPRTFGQGTKVEIKRTVAAPQAVLTQPSSLSAPPGASASLTCTLRSGFNVDSYRISWYQQKPGSPPQYLLRYKSDSDKQQGSGVPSRFSGSKDASANAGILLISGLQSEDEADYYCMIWHSSAWVFGGGTKLTVL
notes: DVD-Ig, outer AB062 / inner AB034
For B8, in assay [3], the Kd amounted to 39 nM; the koff (as a rule, the first-order rate constant of dissociation) turned out to be 0.0051 s⁻¹; the on-rate constant (kon) – broadly, the second-order rate constant of association – was 130000 M⁻¹ s⁻¹.

B9: DVD2346 (bispecific antibody)
VH: QVQLQESGPGLVKPSQTLSLTCTVSGYSISSDFAWNWIRQPPGKGLEWMGYISYSGNTRYQPSLKSRITISRDTSKNQFFLKLNSVTAADTATYYCVTAGRGFPYWGQGTLVTVSSASTKGPEVQLVQSGGGLVKPGGSLRLSCAASGFTFSSFAMHWVRQAPGKGLEWISVIDTRGATYYADSVKGRFTISRDNAKNSLYLQMNSLRAEDTAVYYCARLGNFYYGMDVWGQGTTVTVSS
VL: DIQMTQSPSSMSVSVGDRVTITCHSSQDINSNIGWLQQKPGKSFKGLIYHGTNLDDGVPSRFSGSGSGTDYTLTISSLQPEDFATYYCVQYAQFPWTFGGGTKLEIKRTVAAPEIVLTQSPGTLSVSPGERATLSCRASQSIGSSLHWYQQKPGQAPRLLIKYASQSLSGIPDRFSGSGSGTDFTLTISRLEPEDFAVYYCHQSSRLPHTFGQGTKVEIK
As to B9, the “GEO MEAN” value in assay [2] worked out at 24.1.

B10: DVD2212 (bispecific antibody)
VH: EVQLVQSGGGLVKPGGSLRLSCAASGFTFSSYAMHWVRQAPGKGLEWVAVISYDGSNKYYADSVKGRFTISRDNSKNTLYLQMNSLRAEDTAVYYCARFSGWPNNYYYYGMDVWGQGTTVTVSSASTKGPSVFPLAPQVQLQESGPGLVKPSEILSLTCTVSGGSISSHYWSWVRQPPGKGLEWIGYIYYSGSTNYNPSLKSRVTISVDTSKNQFSLNLSSVTAADTAVYYCARIPNYYDRSGYYPGYWYFDLWGRGTLVTVSS
VL: DVVMTQSPLSLPVTPGEPASISCRSSQSLLHSNGFNYVDWYLQKPGQSPHLLIYFGSYRASGVPDRFSGSGSGTDFTLKISRVEAEDVGVYYCMQALQTPPWTFGQGTKVEIRRTVAAPQAVLTQPSSLSAPPGASASLTCTLRSGFNVDSYRISWYQQKPGSPPQYLLRYKSDSDKQQGSGVPSRFSGSKDASANAGILLISGLQSEDEADYYCMIWHSSAWVFGGGTKLTVL
notes: DVD-Ig, outer AB005 / inner AB034
In the case of B10, in assay [1], the equilibrium dissociation constant (Kd) is 16 nM, the dissociation rate constant (koff) is 0.0012 s⁻¹ and the kon was 74000 M⁻¹ s⁻¹.

B11: DVD2213 (bispecific antibody)
VH: QVQLQESGPGLVKPSEILSLTCTVSGGSISSHYWSWVRQPPGKGLEWIGYIYYSGSTNYNPSLKSRVTISVDTSKNQFSLNLSSVTAADTAVYYCARIPNYYDRSGYYPGYWYFDLWGRGTLVTVSSASTKGPSVFPLAPEVQLVQSGGGLVKPGGSLRLSCAASGFTFSSYAMHWVRQAPGKGLEWVAVISYDGSNKYYADSVKGRFTISRDNSKNTLYLQMNSLRAEDTAVYYCARFSGWPNNYYYYGMDVWGQGTTVTVSS
VL: QAVLTQPSSLSAPPGASASLTCTLRSGFNVDSYRISWYQQKPGSPPQYLLRYKSDSDKQQGSGVPSRFSGSKDASANAGILLISGLQSEDEADYYCMIWHSSAWVFGGGTKLTVLRTVAAPDVVMTQSPLSLPVTPGEPASISCRSSQSLLHSNGFNYVDWYLQKPGQSPHLLIYFGSYRASGVPDRFSGSGSGTDFTLKISRVEAEDVGVYYCMQALQTPPWTFGQGTKVEIR
notes: as for B1
For the molecule B11, in assay [1], the Kd came out at 18 nM.
